Fewer inactive variants are shown than the library holds.
B1: TPR 5TU (parent)
chain: GGAUCUUCUCGAUCUAACAAAAAAGACAAAUCUGCCACAAAGCUUGAGAGCAUCUUCGGAUGCAGAGGCGGCAGCCUUCGGUGGCGCGAUAGCGCCAACGUUCUCAACUAUGACACGCAAAACGCGUGCUCCGUUGAAUGGAGUUUAUCAUG

Variants of: B1
Experiment: polymerase ribozyme fitness, log enrichment relative to wild type (log ratio); higher = more active; in vitro selection for triplet polymerase activity
Outline: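 For each subunit of a heterodimeric triplet polymerase ribozyme, a mutant library was built by PCR and transcribed, then taken through a single in vitro selection round in triplicate. Selection involved annealing to a biotinylated primer, the partner subunit and triplets, incubation frozen at −7 °C, gel excision of extended constructs, capture on streptavidin beads and RT-PCR. Genotypes were retained after Illumina sequencing of inputs and outputs only with ≥10 input reads and ≥1 read in each output. Fitness is defined as the logarithm of a genotype's enrichment relative to wild-type enrichment, using inverse-variance-weighted averages across replicates, with the logarithm taken to base 2.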

Polymerase ribozyme fitness (log ratio), ≤ -4.2:
C8G A40U U53A C87A C108G
U9A A28U A66G C79G C93U
C8G C10A C93U A106U A107U C108U U148G
C10G A19G A37G G42C C57U G59A C129A
C8A U15C C75A U109C
C10G A47C C54A U55A G58A C63U U82C C87G G100U A113C U134G
C10U A29U U53A C79G C85U C95G A107U
U9A A20U C36A A52C A113U G124C
C10G G48A G80A G84A A91C C114U C125U A142C
C10G A23U U56A C93U
U9C U82A G92U C116U U134G
U9A A24U U55A G68U U82C G94A A110U G136A
C10U A17G A23C A24C A26G U31G A39U U44A C54G C57G C79A C96U G124A
C10G A19U C32A C93U U127A
U9G G59U G68C G84U C105A G124A G133C A142C
C8U G11A G86A U109C C123A C132G
C10U A23G U82G C95A
U9A A12U C32U A37U G92C
C8A G83C C85G G140C A150C
C8G A16U A37C A73C G84A U139C
C10G A22C C35U G86U A115G G124A
C10U A37U C57G G58U C87G G140U U145A
C8G U78A
U9C U33C C87A A122C
C8G A23G A40G G67C C99U U102G U127C G143C
C10A A39U U55A C57A U90G G92A
U9A U31G C36A C93G C103G G140C
C8U U31A C32G C54U G83U U104A A107C
U9G A24U C35U A60C G71A G128A G143U A150G
C8U C14G C32A C36G G83A G117C
C10G C57A C108A A115G U134A G136U
C8U A16C A19U G59U A60G C93U
U9G A16U C32A C85G U135C G152U
C8G G83A C99U
C8U U31G A40G G42U A52C C79G G84A C103A G133A U148G
C10G U77C U90A A119G A137G
C8G A29G G50U C85U C125A
C10G U55A U148A A150C
C8A U33C U44A A52U C85U U104A A106G C125G G152U
C10A A19G C57A G59A U82A C85U G141C
C10A C51G A52C G59A C75G
C10G C79G
C8A G86A C87U A138U
C8A C96A A110U U111G
C8G U56G A91G
U9G C35U G48U U56G A60C G74A C96G U104G A107U
C8G C131U U144G
C10G A64C G70A A97U U144G A150U
C8G G48A C54U C69G C85G A91C
C8G G81C G86A C132A
U9A A12U C114A C125A
C8U U9A C10U A17G A66G A91C
C10G G88U C96U C132G
C10A A24C C51U G141U
C8G A16C A21G G48C C75A C87U A110U U144G
C8U A19G C79U C85G
C10U A17G A26U G46C U55A C85U A106U G126A G133C
C10A G48A U56G C79G C96A G143C
C8U A20C G50A U82G C93U C95U A142G
C10A A20G C38A U55A A60C
U9C G11A A23U C36U C51A G92C G117C
C10U C38A G70A C93U A97U C116G U148G
C10U G67C
C10A A22C A73U C79G C87A A113G
C10U A39C U77A G84A C95U A120U
C8U A17G C36A G50C A115G
C8G A24U A26G A52C C93G
C10G A52C
C10A A52C C63U A91G A113U
C8A U9G A12C A29U A30U G88U C93A A107G
C10A U45A C69U C72U
C8G A16C C93U A137G
U9C U15G A17U A21U C27G U56A G68A
C8U A39U G48U U134A
C8A U13G A30U U82A U101G
C10G G42A C57U C85A C108U
C10U A17G A28C G42A C85U A89G C93U U145G
C8U A22U A40U A47C
U9A G48A G80C C87G A107U A113U
C8U A17G A39G G84U C116A C118G U139C
C10A A20U A21C A49C C51U C79U A110G
C8U C87G G100C U139C C149G
U9G A39G U53A G83C C87A C108G U151A
C8U C38U C69A G83A A91C C118U
U9G G65A G81U C95U
C10G C14G G25C G59U C95U A110G
C8G A22U C35G C69G G70C G92A
C8G G34A G124A A137C
C10G U53A C54A G80C G84A C96G U104C C108U U145G
U9A A30C A40G A41C C57U C95G
U9A C27G A73U C93U U102G G117C
C8A G94A C95A
U9A U53C A64U C87A G136U A150G
C8G G70C G80A A91U U104C A120U
C8A G42A A49C G83U C93A G94A
C10G U13G C57U C85U G152C
U9C C36A U45A A47C A49U A52G U55G G68U G80U G94U
C8U U13C C27A G50A U61A G62U C93U A106C A110G C125G
C10A A40U G67U G81C C149G
C8U A20C G50C G71A C96A A98G C114U U148C
U9C U33G A39U U55A C57U A91C C95A G140U
C10A U31G G50A G58C C96A C116U
U9G G11U U44A G50C C87A C105G
U9G U15A A30U U33G G42C U101A C105G A110U C118U A119G U139A A147C A150G
C10U A19U C32G G80A G88U A115G U146A
U9C U31C A41C G48C A52U C93U C95A G140A
C8G U31C C32G G48A A91U A122C G133A
C8U C51A A60U C87U
U9G A17C A22U A29G G50A G68A
C8U C38G A60C A107G G141C U151C
U9G G86U A97U C108G
U9A U78C G84U C99G A113U A115C G117U U135C U144A U148G
C8U C63U G80A G84C C96U
C10G A49G G59A A60U G88U A97U
U9G A89U C95A
C10A C32G U139G
C8G A41U A49G C95U A147U
U9C A28G C57A C96G U151C
C10U A16U C18U G71C C108G
U9G C27U U55A C85G C95G C123G G140U
C8A G67U U77A G83U C87G U134A G141C U144G
C10A A12U A28C A29C A107G
C10G C63G C79U C85G C99A A107G A121U G143A
C10U A30U U33G C51A A64C A91G C118U U145C
C10G C54A G71A
U9G U90C U148G
C8G U15G A17G C18U A20C C32G A73G C93U C125U
C10G C18G A19C C87A A98U A115U G117U
U9G A23U A26G A28G U61A G80A A120U G141U
U9A A16C C85A C87A
C8G A39U G46U G68C C79U G83A U102A
C8U G84U G117U G140C U146G
C10G C43G U55A G83A G92C C125A
U9G C38U U44C G46A U56A C79G C96A A142G
C8G G11U G50A C116G U146G
U9A C27U C72U
C10U G42A A49U A64G G71A U139C
C10G A22G C63U G81U G94C A147G U148A
C8A U9C C18A A19G G58U G84A U144C A147C

Polymerase ribozyme fitness (log ratio), -4.16:
U9C A21U A28C G50C G94U U102C

Polymerase ribozyme fitness (log ratio), -3.41:
U9G C85U

Polymerase ribozyme fitness (log ratio), -4.04:
C8G A29U

Polymerase ribozyme fitness (log ratio), -3.61:
C10U G143U

Polymerase ribozyme fitness (log ratio), -3.56:
C10U A16U G34U A39G G94A G141C

Polymerase ribozyme fitness (log ratio), -3.62:
C10G C96G

Polymerase ribozyme fitness (log ratio), -3.72:
C8A G86U

Polymerase ribozyme fitness (log ratio), -3.1:
C8G G58A

Polymerase ribozyme fitness (log ratio), -4.09:
U9G A19U

Polymerase ribozyme fitness (log ratio), -2.95:
C8G

Polymerase ribozyme fitness (log ratio), -3.43:
C10U G58A U109G

Polymerase ribozyme fitness (log ratio), -2.96:
U9A C87U

Polymerase ribozyme fitness (log ratio), -3.69:
C10U C96A C125A

Polymerase ribozyme fitness (log ratio), -3.94:
C10A G83C

Polymerase ribozyme fitness (log ratio), -3.7:
C8A G94C

Polymerase ribozyme fitness (log ratio), -3.19:
C10U A47C

Polymerase ribozyme fitness (log ratio), -2.5:
C10U A60G

Polymerase ribozyme fitness (log ratio), -3.53:
C10A C85A

Polymerase ribozyme fitness (log ratio), -4.07:
C8G C96A

Polymerase ribozyme fitness (log ratio), -3.13:
C8A G141A

Polymerase ribozyme fitness (log ratio), -3.92:
C8G A91U A142U

Polymerase ribozyme fitness (log ratio), -2.58:
U9G G141U

Polymerase ribozyme fitness (log ratio), -2.39:
C8U

Polymerase ribozyme fitness (log ratio), -2.87:
C8U G84A

Polymerase ribozyme fitness (log ratio), -3.42:
C8U A40U

Polymerase ribozyme fitness (log ratio), -4.08:
C10U A12U A121C
C8G G48C

Polymerase ribozyme fitness (log ratio), -2.78:
C10G C96U
